From the DeepSol protein solubility set come the findings set out here.

The nature of this series: soluble on expression in E. coli; label from the status in PepcDB or PDB records.
As to “SAKTDKLAQFLDSGIYESDEFNWFFLDTVRITNRSYTRFKVSPSAYYSRFFNSKQLNQHSSESNPKKRKRKQKNSSFHLPSVGEQASNLRHQEARLFLSKAHESFLKEIELLSLTKGLSDDNDDDDSSLLNKCCDDEVSFIELGGVWQAPFYEITLSFNLHCDNEGESCNEQRVFQVFNNLVVNEIGEEVEAEFSNRRYIMPRNSCFYMSDLHHIRNLVPEKISHYHIGRRCNSLIDVIYAAKSEEGYNLIVIDPPWENASAHQKSKYPTLPNQYFLSLPIKQLAHAEGALVALWVTNREKLLSFVEKELFPAWGIKYVATMYWLKVKPDGTLICDLDLVHHKPYEYLLLGYHFTELAGSEKRSDFKLLDKNQIIMSIPGDFSRKPPIGDILLKHTPGSQPARCLELFAREMAAGWTSWGNEPLHFQDSRYFLKV”, the “soluble on expression in E. coli” value is reported as “soluble”.
Then “VSIKKSSGLNFDNTAIAINAGKGLEFDTNTSESPDINPIKTKIGSGIDYNENGAMITKLGAGLSFDNSGAITIGNKNDDKGSGYIPEAPRDGQAYVRKDGEWVLLSTFL”, with “soluble”.
On to “MKRVLSGIQPSGEIHIGNYLGAIKQWVAIGEKWGRDAFFCIVDYHALTNPLAYDPSTLAQRTFEAALVNIAAGLDPEKVTLFVQSHVPEHTELSWVFTTLTPLGDLTRMTQFKDKASKQETVWSGLLMYPVLQAADILIYKADTVPVGEDQVQHIELTREIARRFNHLFGETFPEPQALLNPEAPRVPGIDGKAKMSKSLGNTIGLLEPEESIWQKIQHLPDDPQRIRLSDPGDPERTILFTYLSYFAPKDLVEALKEEYRKAGVGTYVVKRILFDHLMEALRPIRERAEALKKDPDYVMDALLEGAKRARAVAQATMEEVREKVGLLLPRKRPVLR”, for which the “soluble on expression in E. coli” value was “soluble”.
Then “MGSDKIHHHHHHMTNSIMALPSSIRHYRRKQMAINQVAQTPAISPLTIKERTGSISTAEMISVLKGETTALHIKQAFSTEVAEEITTNFLGSPGLKERKDGVPGQYVGASHYRKDAATYFAESETARPHVDALFENLVDPVRGSFDALKRELHKQGIELRLARSEHGHANVCRALSWSGSGTFSLDPHDDVAQVLSAGNDYELSAVAHNTVAALNFYPSMPEEGGNLRLWSHKPTVADRKSQGVETTGYPYSSAYLEAVPCREFQLKPGDIALIDGGFVHGVTGQSGNGKRRLVLNSFFGFARPDLVLWWT”, with “not soluble”.
Regarding “MSLGTPSEPTSTLESDIFDDLSLYYLEDVFLSATTPSPTFDLSDPSDPSLSDSFDSEWSPMTPCSIERPETSTSSIFSFEARPIKTPPPAEYLRLPTFLSTNNSGFFDSVVASDFNLYGKFNDWLNDSKPRSGSFAIESAEELARNPRETRSEPEVPSLFKRREYGCGYCRSVGYMRWETHTRKKCDKLSSLAPCKICGARGEMNHTETYCPMKPSSQLFFNEDFSRDFENRRFQRSRYQFYKHSSLIQKIYASSEDSF”, the “soluble on expression in E. coli” value is “not soluble”.
In the case of “MGSDKIHHHHHHMDMTTYPIYLVGGSKGGVGKSFVALALADYLLRQNIRAALVETDTSNPDVMKAVQDEMRCIAYNLDDADGWIGLVNFCDEQRDAAIVVNTAARSQTGVEQFGATLAGALGELQRRLVVLWVINRQRDSLELLHAFSKTFPDAVTNVVRNGYFGPAEKFTLYQGSQLRRSIEARGHSLDFPDLADRVADELRSQRMSIRKAAETMHIGERVELMRWRSLCDAMFARVTVDG”, the “soluble on expression in E. coli” value was “not soluble”.
Under “MNITATSLDSEDELSIKYMDAVDNINILKRYGCDIQHEVDVHTMSFDNSLSLQRYDRIVFNFPHAGSRFFGRELSSRAIESHKELVRGFLENAKEMLEEDGEIHITHKTTYPFSDWGIKKLGKGEGLKLLKKSKFELSHYPGYITKRGSGGRRSDDYFPVDVDPCDLKGFEVLEIYHPSMSDGFVNSVMVARKLTDRLIKYEWCTGTRSLNSLKKTRQTEPDQFNKREINRSGPGQVAEEEEEVVAVMMMMTSLGGGAGGGGGGGGSGGGRFVTYPPPLSVPPSAPQSPNFSGGLRSQPSFLVEQEKYLSELLAERHKLTPFLPVLPHVCRLMNQEILRVTTLLENALSQSRFDHPSPLASGGIFQNSRADMNGWASQFPSERSVSSSPAPNWLNSPGSSSGLIVKRTIRVDIPVDKYPNYNFVGRLLGPRGNSLKRVEASTDCRVLIRGRGSIKDPIKEDMMRGKPGYEHLNEPLHILVEAELPIEIVDARLMQAREILDDLLTPVEETHDFYKKQQLRELALLNGSLREEGSPMSGSISPYNSLGMKRAKTRG” stands “soluble”; under “MEQIGAALQQTLEPDAAIRKRGEEALRSLQSNPGYIIQILQLVVNEQQQIAPQIRIAAAVALKNFVKRNWGPAPEVEMGQEDEEQFRSMLLEAMFNTKSNVQEILSNALYLIAQRDFPEKWPDLVPYLSKFLNGADLNHLVASLASMEQIFRKFRFESKSAELWKELKKCLLSTQEPLTLLLRNMMEVGQRKDQLGADEIAQWLRVLLLIAKVYHSLCSQEIPEYFEDHLKDWMPHFLHLVQIDAPTQTSNSGEPTTLDELKHEICEIFTLYSQRYEEEISEFVPDIILAVWNLLKSTGPDTRYDTMVCAALEFLSMVSQRQYYEGHFTGEGVLKTLAENVCVQNLLLRQQDMELFEDEPLDYMKRDIEGTDVGTRRRGAIDLARGLCRRFEAQMLPCLGEIVQNLLGSGDWIKIDIVYSLITAIAVKTETAKSGVTATNPLVDINDFFITQVATHLNADVNQTPILKADALKFAVTFRKQLAPEHLMTAIKSADALLSSNTPILHKYAAYAIEKILLADSNKIFSAQNLPVSSILQNLVTAFDKDAKAQNSPYLIKAILRIIVILDDDTIRHADAIAVKLAQLVESATKNPADSVHTHFLFETICVLITKTRTIGASLDAQLLPLIEVIFREDLEDLIPYALQITGVLVSSCIARNSSIDQFSPFLPFLLSERLWARSANVPAALSVLEVILSVNAQRVVSENSGLILSHLARLLGSKTLDQYGFQLAATILPSIEHFEGSAMTFVLNTMFRRVQSSKTPKFMKLFIVFLCRFTIARSAQDLVQSCENIQTGMFGMLIEKVVCIDLPGLKQTTTGPEKRIIAIGMGNLLADVTQQLVGQYGILSYEVAMLLEAASASDRAVLSPEEEQASMYNAEGEFVNPFCRLSYAPKQPPVAANIANHKAYFAQAVLVRGPGNCPETLRSVPPEIVTYLQSIQQ”, “not soluble”; under “MFDLEKVQTLNELEMLVYHYVLEHLHQIPQQTIRQLATSCHVSTSTILRFCNKMGYAGFSELKYAVKEEAKQTQTFENFYDATVHVDAFLKKLNQETYYEMLRPAIQMIVQARHVAFTGIGTSGILGSYGSRYFANLNINSYSIADPFTPIPKRGFENTLALILSVSGETNEMIKQMTDFKTAGAKVLSITNNQHSTIARLADYNISYYMPDERSPFADKSVNTTTQIPVIALIELLAHQASQLLKELDETPS”, “not soluble”.
In the case of “MTEYNNNFDRELGWDDEITQDSVGFVQLVPGDYQFTVTNMERARHTPNPKSPGKLPACNKAVVTIQIETSEGIAQLTHNLFLHTTTEGMLSAFFGAIGQKKHGEPLKMNWNTVIGAKGVARINKRKGTGDYADREYDNIKSMIYADEVDWTKVLNKDVAQPQQMTHQQSAQPTYQGQQAQGTNFAQQPATQSYQQGQMQTPQQPQGGWGGF”, the “soluble on expression in E. coli” value was “not soluble”.
As for “MSAVNGLVPSTIFDRINSDMDVSEEMEEIREVLYEMIKTNFPMGVAATHLSEKYHEEFVSKGLGRELPEDWIQQVTAAEEFEAQTRGPITILFVRLSNTSSFKRPPINSVNVRVISTDREPTADELKKIKQRKENEPTEHAKTLSQQSVALKEGSTVSIVYADSPKRFFIRALADDDQYEKIGTTLAEIYAQETPPSALDSRVAIYEIVAGGAYALQDSNGTWFRVIAKQPPQSGQVMCHFVDVGVCEKFPVAAIRLLPPAVHPVMSIGSMAREVRMDVSEEESLRLNNKFVDLTFETKDDGIQVPINLTLSKFDSSDSESLPVVDLQSSDGLSITEFLKKPSGVVRLSTPTKTTSPITPASASTSSLTCLFDKPATIQPMTVAQMPMSAFPANAIFAAGPTDISLRQLSLDPMPDYMYAKLKDECALPDSQLESSPDFGGFYAAFIDDRWERVQCIRASKIDKQAYCVYLLDVGAFQYVRKEAMRRLNSTSPFKKMLMFKCKIGGIKPVAGGEVWSRESHEAVREFFEAACGEPVVVEPTQPGWSQWKQLNAPAVPTCEARLSCCGRDIGDWLIACGLALPINAPIPSPNSQSLLTFVPTPINIVGRNI”, the “soluble on expression in E. coli” value is “not soluble”.
